Reference: paper PMC9398157
Values joined by “and” are separate entries in the source; they are usually repeats but may differ in a detail not shown here. Equal entries are not always repeated. Where two headings read alike, the source gives them in different places.

Key:
[1] = molecular target: DR5 on Colo205 and H-EMC-SS cells (Homo sapiens) (UniProt O14763)
[2] = molecular target: Death receptor 5 (human DR5), as used in SPR, Octet and ELISA (human) (UniProt O14763); assay: SPR
[3] = molecular target: Death receptor 5 (human DR5), as used in SPR, Octet and ELISA (human) (UniProt O14763); assay: SPR; remark: listed apart in the source
[4] = molecular target: DR5 on Colo205 and H-EMC-SS cells (Homo sapiens) (UniProt O14763); assay: flow cytometry on cells
[5] = molecular target: DR5 on Colo205 and H-EMC-SS cells (Homo sapiens) (UniProt O14763); assay: flow cytometry on cells; remark: listed apart in the source

Substance: IGM-8444 (antibody)
- cytotoxicity on Colo205 cells, IC50 (CellTiter-Glo viability after 24 hours) [1]: 1.1 ng/mL and 1.3 pmol/L
- cytotoxicity on H-EMC-SS cells, IC50 (CellTiter-Glo viability after 24 hours) [1]: 0.32 ng/mL and 0.37 pmol/L
- Kd [2]: < 0.011 nM
- Kd [3]: 85 nM
- EC50 [4]: 0.2 nM
- EC50 [5]: 0.073 nM
